Source: the RNAGym collection of RNA variant scans (doi:10.1073/pnas.2313332121)

B1: TPR t1 (parent)
chain: GACCAAUCUGCCCUCAGAGCUCGAGAACAUCUUCGGAUGCAGAGGAGGCAGGCUUCGGUGGCGCGAUAGCGCCAACGUCCUCAACCUCCAAUGCAUCCCACCACAUGAUGAUGCCUGAAGAGCCUUGGUUUUUUG

Variants of: B1
Assay: polymerase ribozyme fitness, log enrichment relative to wild type (log ratio); higher = more active; in vitro selection for triplet polymerase activity
Procedure, shortened: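 Streptavidin-bead capture of gel-excised extended constructs, followed by RT-PCR, closed a single triplicate in vitro selection round. That round began by annealing PCR-built, transcribed mutant libraries of each subunit of a heterodimeric triplet polymerase ribozyme with a biotinylated primer, the partner subunit and triplets, then incubating them frozen at −7 °C. After Illumina sequencing of inputs and outputs, genotypes needed ≥10 input reads and ≥1 read per output. Fitness is the base-2 logarithm of genotype enrichment over wild-type enrichment, using inverse-variance-weighted replicate averages.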

| Variant | polymerase ribozyme fitness (log ratio) |
| --- | --- |
| U54C C72U | -0.0207 |
| C13U C72G C85G C123U | -0.494 |
| G61C U106C | -2.89 |
| G48C U116G | -3.09 |
| U54C G57C U112C | 1.77 |
| G47C G77C C98U G113C U130C | -6.15 |
| G17A U109A G117A C124A | -5.22 |
| C79U G93A C102A | -2.33 |
| G77A C104A G128A | -3.06 |
| A18C C72U U92G A121G | -0.934 |
| G17A C123U | -2.01 |
| A5U G45A | -1.11 |
| U9A C13U U92A C101A | -4.36 |
| U21A G23U G42C A68G C94A U112A | -6.75 |
| C72U C82A C115A | -1.79 |
| C53U C72A A90U C101A | -2.92 |
| C53G C70U U125C | -3.18 |
| C82A C97G | -5.53 |
| C31A G77C U112C | -4.36 |
| U9C G36U C104A C115A | -1.3 |
| C11G C12G | -1.01 |
| C56G G58U U59C | 1.36 |
| A46U A66C C123G C124A | 0.0849 |
| G47U C53U C79A | -4.4 |

| Variant | polymerase ribozyme fitness (log ratio) |
| --- | --- |
| G10A A41C G52A | -1.27 |
| G120U G127U | 1.64 |
| C12A C88G C89A U116C C124A G127A | -3.44 |
| C15G G44C G57U | -3.85 |
| U9G C40A C76U C114A | -2.63 |
| G60A C115A | -0.714 |
| A5G U32C C40U C99U A100U | -5.33 |
| C8U C62U C79U C82U A91U A105G C123G U129G U131G | -5.84 |
| A74U U125A U131G | -0.852 |
| A43C C101G A121U | -2.62 |
| C20U C22A G23U G44U G63U A66C C88G A103C U109A | -6.53 |
| A18U C20A C97G U109A U116A | -5.44 |
| C28G C40U C86A | -3.65 |
| C22U C56U C114U | -4.27 |
| A5G G135U | -1.22 |
| A37U G48U U55A | -1.56 |
| G48A G52A G60A C73U C82G C88U C102G | -5.86 |
| G61A C101A U116A G128C | -6.04 |
| C104U G120A | 0.815 |
| G19A G44U C124A | -1.74 |
| C62U G93C | -1.8 |
| U21A G23A A121C | -5.61 |
| C62A G128A | -2.62 |
| C85A C101G U109G G117C | -7.01 |

| Variant | polymerase ribozyme fitness (log ratio) |
| --- | --- |
| A37C U55G C76U A105U | -2.68 |
| G60A A121C | 1.29 |
| A24U C28G A84C G120U | -7.73 |
| C8G G52U C64U C73U U96G | -1.4 |
| C3A A37U C114U | -3.95 |
| G47U C123A | -0.877 |
| C12G C88A | 0.489 |
| G17U C34A U112A G120C | -6.92 |
| A2U U21G C53U G58C C72U U129A | -1.46 |
| G63A U132A | -0.756 |
| G44C U112G G120U G127C | -5.08 |
| C70U C97U C101U C102A | -4.84 |
| C11U C114U U132A | -3.3 |
| G61A C104A | -1.95 |
| C8G C82A C97A | -4.13 |
| C40A G42A C56G C72A A84C | -4.52 |
| A24G C53U C62U C89U G113A | -5.19 |
| A29U U96C | -1.87 |
| G17A C40A A43U | -5.48 |
| C40U C104A A118U | -1.26 |
| C8G C114A | 0.0806 |
| A2U C12A A43U G120A | -1.89 |
| G47U G48U U59A C79U | -3.11 |
| C8A C28G G61A | -2.22 |

| Variant | polymerase ribozyme fitness (log ratio) |
| --- | --- |
| C13U C123U | 1.41 |
| G122A U133G | -0.871 |
| C11A A27U C34A C72G C97A G120U G127A U129C | -6 |
| A46G G60U | -0.448 |
| G44A C64U | -1.11 |
| G19U U59A | -3.3 |
| A16U C72G | -1.5 |
| C70A C86A | -2.39 |
| G60A G117U | -1.75 |
| C73G U129G | -2.27 |
| C15G C97U | -2.23 |
| C49G U125A | -0.51 |
| U55C G57U A66C C123G U132A | 0.759 |
| U7C C13A G93A C102A A103U A121C | -4.79 |
| U9A C34U A37C A46U C56U G107C C114U G122A G127C | -7.05 |
| A41U A43U G69C G77C G93A C124G U131A | -1.81 |
| U9G G48C G120A U130A G135U | -0.622 |
| C73A C123A G135C | 0.5 |
| U21A G60A U96C U116G | -1.53 |
| C11G G61U U96C | -0.274 |
| C3U C62G | -2.24 |
| G17C G25U C34U G69U U112G | -7.59 |
| C53A C79A G128A | -3.36 |
| C72U G135C | -0.00236 |

| Variant | polymerase ribozyme fitness (log ratio) |
| --- | --- |
| U32C U55G C102A | -2.56 |
| U106C C123A | 0.522 |
| C64U C73U G117C | -3.17 |
| G42A C64U U109A | -6.32 |
| A5C C53G U96A C123U | -0.893 |
| A91C U96A | -2.09 |
| U7C C8U C34G | -6.08 |
| U9A A84U A121C | 2.06 |
| G61A G77A A95U | -1.47 |
| C94U G117C U130A | -6.35 |
| U130G | -0.361 |
| C72A A83U | -0.322 |
| A2U A41C C114U U133G | -5.64 |
| C73U C76G U112G | -1.81 |
| A50U G63C U78A U112C U116G A119C | -6.63 |
| A5C C82G U92G U130G | -4.87 |
| G77U A111U | -3.23 |
| G47A G60A C85G C123U | -3.19 |
| C85A A100C | -2.71 |
| A90G C101A C123A | -0.711 |
| C62U G63U C101U G135A | -2.36 |
| G63A C123G | 0.797 |
| G45C C62U | -1.63 |
| A27U C28U | -2.59 |

| Variant | polymerase ribozyme fitness (log ratio) |
| --- | --- |
| C12U G47C G69U G107A | -4.81 |
| C11U U81A | -2.1 |
| C8G A111U | -1.64 |
| C15U G44U | -2.59 |
| G47U U92G G117C | -7.27 |
| A2U C8G C101G | -2.67 |
| G45C C114A | -2.66 |
| U7A U106A C124A | 1.98 |
| U9G G10C C11A C15A A37G C49G C85U A95U C123U | -3.19 |
| A68U G120C | -5.33 |
| C11U A46C G120A U133G | -0.579 |
| U55A U59C U78G C82A G110A | -2.6 |
| A6C U30G G61U A84C U112A | -3.92 |
| U9A A16C C49U A66G C101G C123A | -4.86 |
| C104U U112C | 0.772 |
| U7A G52A G69C | -2.28 |
| C12U G60C U109G | -4 |
| G113A | -1.01 |
| G69U C80G | -2.32 |
| C12G C80U | 0.429 |
| C11G G17A G60A C79G A90U C99A | -7.47 |
| C53G A74G C115U | -1.15 |
| C70U C72U A121G | 1.38 |
| C64U C72U | -0.106 |

| Variant | polymerase ribozyme fitness (log ratio) |
| --- | --- |
| A26G G71U C88G G120C | -3.91 |
| C49U C70G C102A A111C U116A G120C | -6.27 |
| C8A G58C | 0.847 |
| A26C G120C G127A | -5.53 |
| G77U U132A | -0.53 |
| G61C C123A | -0.578 |
| G44U G128U | -3.49 |
| C53U G57U C62G | -2.6 |
| C56A A100C | -1.19 |
| A75U C82G U96A C115G | -3.29 |
| U33A C82A | -5.5 |
| A43U G71U U116C G128C | -5.7 |
| G69U C102G | -2.76 |
| C8U C64U U96C | -0.074 |
| C40A C114G | -3.8 |
| C34U G45C G69U C115G | -3.26 |
| C12U G23A U130C | -5.34 |
| A18U C123G U129A | -1.83 |
| A43G G44U C49G U96A | -2.32 |
| A46C C56G C72G U87A A100U | -1.12 |
| C8U A50U C94A | -1.52 |
| C13U U55G C79U | 0.324 |
| C20A C88A | -2.94 |
